Biological target: fluorescein-labeled FITC-casein
Experiment: fluorescence polarisation

## ClpB_(K-12) (from UniProt P63284 1-857) (enzyme)
  Kd: 560 nM
